# According to US20150290319A1 (EMERGENT BIOSOLUTIONS CANADA, published 2015):
# Numbering of substitutions follows the chain as printed.
# B1: rehuCAN46G19 (antibody, V domains shown)
# VH: EVQLVQSGAEVVKPGESVKISCKASGYSFTGYYIHWVKQTPGQSLEWVGRIFPYNGAASYNQNFKGKATLTVDKSTTTAYMELSSLRSEDSAVYFCARWLRVYFDYWGQGTTLTVSS
# VL: ENVLTQSPSSMSASVGDRVTMTCSASSSVTYMHWYQQKPGKSPKLWIYETSKLASGVPSRFSGSGSGNDYSLTISSMQPEDVATYYCFQGSGYPFTFGQGTKLEIK
# B2: huCAN46G19 (antibody, V domains shown)
# VH: B1 VH with V12K, I20V, T40A, S44G, T76S, S91T, L113V
# VL: B1 VL with M11L, M21I, S42A, S59G, D69S, S71T, L72F, M77L, V82I, L103V
# notes: also called HuCAN46G19-3-2
# B3: rehuCAN46G24 (antibody, V domains shown)
# VH: B1 VH with T77S
# VL: B1 VL with N2I, A13T, T22S
# B4: CAN33G1 (antibody, V domains shown)
# VH: EVQLQQSGPDLVKPGASVKISCKASGYSFTGYYMHWVKQSHGKSLEWIGRVNPYNGDTNYNQNFKDKAILTVDKSASTAYMEFRSLTSEDSAVYYCTRSNWENYFDYWGQGSTLTVSS
# VL: DIQLTQSSSSFSVSLGDRVTITCKASEDIYNRLAWYQQRPGNAPRLLISGATSLETGIPSRFSGSGSGKEYTLSIASLQTEDFVTYYCQQYWNIPTFGGGTRLEIK
# notes: also called murine CAN33G1; CAN33 mAb
# B5: CAN46G24 (antibody, V domains shown)
# VH: EVQLLQSGPELVKPGTSVKISCKASGYSFTGYYIHWVKQTHVKSLEWVGRIFPYNGAASYNQNFKGKATLTVDKSSSTAYMELHSLTSEDSAVYFCARWLRVYFDYWGQGTTLTVSS
# VL: EIVLTQSPAIMSTSPGEKVTMSCSASSSVTYMHWYQQKSITSPKLWIYETSKLASGVPGRFSGSGSGNSYSLTISSMEAEDVATYYCFQGSGYPFTFGSGTKLEIK
# notes: also called CAN46G24-2-3; murine CAN46G24
# B6: CAN46G13 (antibody, V domains shown)
# VH: B5 VH
# VL: B5 VL
# notes: also called CAN46G13-1-5; murine CAN46G13
# B7: CAN46G4 (antibody, V domains shown)
# VH: B5 VH with T16A, G26D, I34M, T40S, V48I, G66D, F95Y, A97T
# VL: B5 VL with I2K, T13A, K18E, S22T, T30S, I40S, S55F, I105V
# notes: also called CAN46G4-1-2; murine CAN46G4
# B8: CAN46G19 (antibody, V domains shown)
# VH: B5 VH with S77T
# VL: B5 VL with I2N, A9T, T13A, K18E, S22T
# notes: also called CAN46G19-3-2; murine CAN46G19
# B9: CAN46G13a (antibody, V domains shown)
# VH: DVQLQESGPGLVKPSQSLSLTCTVTGYSITSDSAWNWIRQFPGNNLEWMGYISYSGSTSYNPSLKSRISITRDTSKNQFFLQLNSVTTEDTATYYCARRSRVSFYFDYWGQGTTLTVSS
# VL: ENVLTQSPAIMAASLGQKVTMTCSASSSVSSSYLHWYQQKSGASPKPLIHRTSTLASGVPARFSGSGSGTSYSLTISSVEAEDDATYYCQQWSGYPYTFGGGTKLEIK
# notes: also called CAN46G13-1-8; murine CAN46G13a
# B10: huCAN46G13a (antibody, V domains shown)
# VH: B9 VH with D1Q, S17T, F80S, Q82K, L83V, T88A, E89A, T93V, T114L, L115V
# VL: ENVLTQSPSSLSASVGDRVTMTCSASSSVSSSYLHWYQQKPGKSPKPLIHRTSTLASGVPSRFSGSGSGTSYSLTISSLQPEDIATYYCQQWSGYPYTFGGGTKVEIK
# B11: huCAN46G4 (antibody, V domains shown)
# VH: EVQLLQSGAEVKKPGSSVKISCKASDYSFTGYYMHWVKQAPGQGLEWIGRIFPYNGAASYNQNFKDKATLTVDKSSSTAYMELHSLRSEDTAVYYCTRWLRVYFDYWGQGTLVTVSS
# VL: EKVLTQSPATLSLSPGERATMTCSASSSVSYMHWYQQKPGTSPKLWIYETSKLAFGVPARFSGSGSGNSYSLTISSLEPEDFAVYYCFQGSGYPFTFGQGTRLEIK
# B12: rehuCAN46G4 (antibody, V domains shown)
# VH: B11 VH with K12V, D26G, V72A, S76T, S77N, H84S, T91S
# VL: B11 VL with L13A, A19V, T22S, T41Q, N68T, S69D, L77M, V84T
# Assays:
# [1] = target: T1, Clostridium difficile toxin B (whole toxin B) (Clostridium difficile); assay: BLI (Octet QKe), mAb on SA sensor, toxin B analyte, model 1:1; head prints KD (nM) but Kdis/Kon gives this number in M
# T1 construct: also called TcdB; tcdB
# [2] = target: T1, Clostridium difficile toxin B (whole …); assay: cell-based or functional assay
# [3] = target: T1, Clostridium difficile toxin B (whole …); assay: BLI (Octet QKe), mAb on SA sensor, toxin B analyte, model 1:1
# [4] = target: T1, Clostridium difficile toxin B (whole …); assay: BLI (Octet QKe), mAb on AHC sensor, toxin B analyte, model 2:1; head prints KD (nM) but Kdis/Kon gives this number in M
# [5] = target: T1, Clostridium difficile toxin B (whole …); assay: BLI (Octet QKe), mAb from CHOK1SV, toxin B; column kdis2 (1/s)
# [6] = target: T1, Clostridium difficile toxin B (whole …); assay: biolayer interferometry (Octet QKe); biotinylated antibody on streptavidin sensor, toxin B 50-0.78 nM
# [7] = target: T2, recombinant toxin B fragment 1 (Clostridium difficile, UniProt P18177 1-546); assay: ELISA, coated antigen, antibody at 0.5 ug/ml, OD405 at 15 min
# T2 sequence (P18177 1-546 limits assumed): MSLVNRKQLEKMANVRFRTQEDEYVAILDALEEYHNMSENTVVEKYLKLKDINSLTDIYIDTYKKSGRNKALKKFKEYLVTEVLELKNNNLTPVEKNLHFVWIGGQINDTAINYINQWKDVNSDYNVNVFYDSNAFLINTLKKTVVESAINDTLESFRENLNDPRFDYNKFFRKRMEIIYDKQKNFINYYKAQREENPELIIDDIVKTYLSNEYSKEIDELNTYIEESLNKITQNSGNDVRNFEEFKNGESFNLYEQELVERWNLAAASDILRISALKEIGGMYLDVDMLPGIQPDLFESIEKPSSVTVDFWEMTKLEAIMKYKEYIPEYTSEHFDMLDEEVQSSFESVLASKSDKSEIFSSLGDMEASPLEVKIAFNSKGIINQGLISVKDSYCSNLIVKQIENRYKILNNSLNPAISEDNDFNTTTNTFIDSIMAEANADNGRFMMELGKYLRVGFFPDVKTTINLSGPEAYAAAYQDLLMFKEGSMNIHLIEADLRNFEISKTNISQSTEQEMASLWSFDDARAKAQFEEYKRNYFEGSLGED
# [8] = target: T3, Clostridium difficile toxin A (whole toxin A) (Clostridium difficile, UniProt P16154 1-2710); assay: ELISA on coated whole toxin A (FIG. 1)
# T3 construct: mature; also called TcdA
# T3 sequence (P16154 whole entry): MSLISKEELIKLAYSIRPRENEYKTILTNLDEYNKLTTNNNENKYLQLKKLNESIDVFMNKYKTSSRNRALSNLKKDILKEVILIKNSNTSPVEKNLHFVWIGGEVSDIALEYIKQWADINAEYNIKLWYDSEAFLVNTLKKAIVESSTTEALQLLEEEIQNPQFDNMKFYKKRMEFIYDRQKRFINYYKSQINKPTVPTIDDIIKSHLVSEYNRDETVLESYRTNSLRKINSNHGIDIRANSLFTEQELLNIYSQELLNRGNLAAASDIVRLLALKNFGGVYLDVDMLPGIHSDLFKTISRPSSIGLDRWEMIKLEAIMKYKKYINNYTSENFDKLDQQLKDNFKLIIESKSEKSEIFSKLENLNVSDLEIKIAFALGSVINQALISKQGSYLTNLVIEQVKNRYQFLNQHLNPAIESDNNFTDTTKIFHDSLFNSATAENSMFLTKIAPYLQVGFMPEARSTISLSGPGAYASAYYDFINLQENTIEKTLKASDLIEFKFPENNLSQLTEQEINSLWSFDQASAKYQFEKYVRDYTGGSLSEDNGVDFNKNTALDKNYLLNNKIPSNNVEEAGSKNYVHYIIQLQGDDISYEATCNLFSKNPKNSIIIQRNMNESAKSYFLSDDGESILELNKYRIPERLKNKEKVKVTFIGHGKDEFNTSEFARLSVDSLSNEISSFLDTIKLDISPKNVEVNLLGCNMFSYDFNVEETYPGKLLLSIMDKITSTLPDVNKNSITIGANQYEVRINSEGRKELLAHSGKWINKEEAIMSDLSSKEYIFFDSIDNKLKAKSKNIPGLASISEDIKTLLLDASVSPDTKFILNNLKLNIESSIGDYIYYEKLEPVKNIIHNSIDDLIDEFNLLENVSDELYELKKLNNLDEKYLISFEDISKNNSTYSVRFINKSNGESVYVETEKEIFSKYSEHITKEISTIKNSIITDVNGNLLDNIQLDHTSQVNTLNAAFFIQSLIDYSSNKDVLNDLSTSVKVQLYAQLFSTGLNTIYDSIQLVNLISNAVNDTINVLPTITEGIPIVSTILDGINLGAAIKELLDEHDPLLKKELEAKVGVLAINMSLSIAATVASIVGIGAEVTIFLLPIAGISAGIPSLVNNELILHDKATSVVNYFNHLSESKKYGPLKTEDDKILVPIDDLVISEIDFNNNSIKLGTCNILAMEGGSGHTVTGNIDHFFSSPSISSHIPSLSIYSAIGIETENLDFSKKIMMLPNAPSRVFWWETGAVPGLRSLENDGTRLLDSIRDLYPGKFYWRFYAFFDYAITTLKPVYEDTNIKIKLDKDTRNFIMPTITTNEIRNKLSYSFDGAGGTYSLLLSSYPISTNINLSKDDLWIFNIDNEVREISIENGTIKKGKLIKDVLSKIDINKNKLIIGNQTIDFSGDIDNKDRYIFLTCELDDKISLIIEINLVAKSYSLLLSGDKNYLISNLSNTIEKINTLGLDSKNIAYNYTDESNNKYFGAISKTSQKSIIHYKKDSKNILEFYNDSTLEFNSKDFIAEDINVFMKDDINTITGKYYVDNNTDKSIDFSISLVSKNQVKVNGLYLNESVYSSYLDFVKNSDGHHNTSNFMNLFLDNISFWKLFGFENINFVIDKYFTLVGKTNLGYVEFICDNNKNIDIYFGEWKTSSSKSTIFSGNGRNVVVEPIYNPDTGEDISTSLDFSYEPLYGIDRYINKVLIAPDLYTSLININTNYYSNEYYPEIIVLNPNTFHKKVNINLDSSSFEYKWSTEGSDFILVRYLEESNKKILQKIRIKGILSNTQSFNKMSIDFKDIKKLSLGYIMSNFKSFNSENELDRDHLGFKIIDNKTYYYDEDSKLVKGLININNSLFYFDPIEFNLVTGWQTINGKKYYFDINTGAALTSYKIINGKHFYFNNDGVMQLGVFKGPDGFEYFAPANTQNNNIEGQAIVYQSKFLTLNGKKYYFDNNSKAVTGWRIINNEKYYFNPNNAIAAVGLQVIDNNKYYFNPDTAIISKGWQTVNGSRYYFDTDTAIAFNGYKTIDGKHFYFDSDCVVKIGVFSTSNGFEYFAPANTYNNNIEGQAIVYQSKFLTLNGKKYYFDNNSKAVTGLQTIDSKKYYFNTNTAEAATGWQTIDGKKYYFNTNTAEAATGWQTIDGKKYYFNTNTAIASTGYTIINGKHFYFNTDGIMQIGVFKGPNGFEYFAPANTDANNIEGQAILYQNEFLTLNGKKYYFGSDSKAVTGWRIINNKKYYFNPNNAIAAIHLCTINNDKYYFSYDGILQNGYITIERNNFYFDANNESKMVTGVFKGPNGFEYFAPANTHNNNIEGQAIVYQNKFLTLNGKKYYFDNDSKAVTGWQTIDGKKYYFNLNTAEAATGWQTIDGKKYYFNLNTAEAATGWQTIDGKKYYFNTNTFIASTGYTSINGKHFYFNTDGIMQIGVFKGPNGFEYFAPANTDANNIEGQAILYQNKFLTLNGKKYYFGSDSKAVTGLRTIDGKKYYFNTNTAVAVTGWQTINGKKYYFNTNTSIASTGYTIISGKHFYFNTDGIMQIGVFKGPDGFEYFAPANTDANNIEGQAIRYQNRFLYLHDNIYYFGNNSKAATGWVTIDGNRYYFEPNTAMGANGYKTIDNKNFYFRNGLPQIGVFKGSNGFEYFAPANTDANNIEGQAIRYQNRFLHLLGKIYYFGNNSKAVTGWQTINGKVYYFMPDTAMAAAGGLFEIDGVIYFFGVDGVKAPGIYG
# [9] = target: T1, Clostridium difficile toxin B (whole …); assay: cell-based or functional assay; remark: listed apart in the source
# [10] = target: T4, recombinant toxin B fragment 4 (Clostridium difficile, UniProt P18177 1777-2366); assay: ELISA, coated antigen, mAb 0.1-1 µg/ml (FIG. 1)
# T4 sequence (P18177 1777-2366 limits assumed): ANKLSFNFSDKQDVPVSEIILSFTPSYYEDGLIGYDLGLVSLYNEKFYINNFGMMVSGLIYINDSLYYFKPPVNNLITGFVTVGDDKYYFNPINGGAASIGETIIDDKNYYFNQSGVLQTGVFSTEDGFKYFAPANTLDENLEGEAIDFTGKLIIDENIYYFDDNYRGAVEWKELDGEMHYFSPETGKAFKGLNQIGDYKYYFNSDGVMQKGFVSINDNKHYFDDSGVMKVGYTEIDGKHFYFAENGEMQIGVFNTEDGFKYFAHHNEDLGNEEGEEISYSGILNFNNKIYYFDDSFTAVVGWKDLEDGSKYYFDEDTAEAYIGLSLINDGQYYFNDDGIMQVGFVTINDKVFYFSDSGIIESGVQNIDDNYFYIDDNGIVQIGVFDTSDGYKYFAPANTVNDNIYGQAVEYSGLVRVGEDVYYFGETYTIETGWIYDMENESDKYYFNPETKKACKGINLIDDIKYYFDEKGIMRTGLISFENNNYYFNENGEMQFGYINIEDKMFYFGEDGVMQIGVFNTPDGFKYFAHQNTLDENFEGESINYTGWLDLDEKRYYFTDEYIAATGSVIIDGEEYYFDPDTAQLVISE
# bovine serum albumin = target: T5, bovine serum albumin (bovine, UniProt P02769 25-607); assay: Western blot (FIGS. 4-6)
# T5 construct: also called BSA; commercial BSA
# T5 sequence (P02769 25-607 limits assumed): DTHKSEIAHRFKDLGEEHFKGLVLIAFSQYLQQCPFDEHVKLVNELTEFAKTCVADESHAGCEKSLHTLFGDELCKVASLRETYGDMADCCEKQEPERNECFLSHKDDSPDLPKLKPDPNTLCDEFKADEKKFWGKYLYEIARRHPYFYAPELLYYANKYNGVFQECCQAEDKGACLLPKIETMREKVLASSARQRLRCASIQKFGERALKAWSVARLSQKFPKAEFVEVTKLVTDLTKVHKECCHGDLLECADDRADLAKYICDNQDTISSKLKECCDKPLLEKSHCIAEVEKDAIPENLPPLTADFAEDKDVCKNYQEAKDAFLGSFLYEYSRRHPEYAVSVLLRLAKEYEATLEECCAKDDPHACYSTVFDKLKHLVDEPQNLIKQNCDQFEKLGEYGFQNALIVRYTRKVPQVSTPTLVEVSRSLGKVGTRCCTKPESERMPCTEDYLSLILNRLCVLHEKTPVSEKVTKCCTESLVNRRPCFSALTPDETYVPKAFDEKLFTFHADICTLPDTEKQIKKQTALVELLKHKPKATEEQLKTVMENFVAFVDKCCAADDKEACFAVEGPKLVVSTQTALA
# [11] = target: T2, recombinant toxin B fragment 1; assay: Western blot, 5 ug protein per lane, mAb at 5 ug/ml
# [12] = target: T4, recombinant toxin B fragment 4; assay: ELISA, coated antigen, antibody at 0.5 ug/ml, OD405 at 15 min
# [13] = target: T2, recombinant toxin B fragment 1; assay: Western blot, 2 ug protein per lane, mAb at 2 ug/ml
# [14] = target: T2, recombinant toxin B fragment 1; assay: as above; remark: listed apart in the source
# [15] = target: T1, Clostridium difficile toxin B (whole …); assay: BLI (Octet QKe), mAb on SA sensor, toxin B analyte, model 2:1, first of three rows
# [16] = target: T1, Clostridium difficile toxin B (whole …); assay: BLI (Octet QKe), mAb on SA sensor, toxin B analyte, model 2:1, third of three rows
# [17] = target: T4, recombinant toxin B fragment 4; assay: Western blot, 2 ug protein per lane, mAb at 2 ug/ml
# [18] = target: T4, recombinant toxin B fragment 4; assay: Western blot, 3 ug protein per lane, mAb from CHOK1SV at 5 ug/mL
# [19] = target: T1, Clostridium difficile toxin B (whole …); assay: BLI (Octet QKe), mAb on AHC sensor, toxin B analyte, model 2:1
# [20] = target: T1, Clostridium difficile toxin B (whole …); assay: BLI (Octet QKe), mAb on SA sensor, toxin B analyte, model 2:1
binder,measurement,setting,value
B1,Kd,[1],0.154 nM
same,"antibody concentration giving 100% neutralization of toxin B on CT-26 cells, mAb from CHO (FIG. 25)",[2],~0.3 µg/mL
same,koff,[3],0.00021 s⁻¹
same,kon,[3],1.36e+06 M⁻¹ s⁻¹
B2,Kd,[4],0.178 nM
B3,"antibody concentration giving 100% neutralization of toxin B on CT-26 cells, mAb from CHO (FIG. 25)",[2],~0.3 µg/mL
same,koff,[5],1.2e-05 s⁻¹
B4,Kd,[6],10.9 nM
same,koff,[6],0.000591 s⁻¹
same,kon,[6],54400 M⁻¹ s⁻¹
same,binding result,[7],no binding (tested: 0.5 ug/ml)
B5,Kd,[6],1.89 nM
same,koff,[6],0.00028 s⁻¹
same,kon,[6],149000 M⁻¹ s⁻¹
same,binding result,[8],no binding (tested: 0.1 µg/ml to 1 µg/ml)
same,"Mean EC50, neutralization of TcdB on HT-29 cells (xCELLigence)",[9],44.2 µg/mL
same,binding result,[10],binds
same,binding result,bovine serum albumin,no binding (tested: 2 µg/ml to 5 µg/ml)
same,binding result,[11],no binding (tested: 5 ug/ml)
B6,Kd,[6],1.17 nM
same,koff,[6],0.000149 s⁻¹
same,kon,[6],128000 M⁻¹ s⁻¹
same,binding result,[8],no binding (tested: 0.1 µg/ml to 1 µg/ml)
same,binding result,[12],binds
same,"Mean EC50, neutralization of TcdB on HT-29 cells (xCELLigence)",[9],136 µg/mL
same,binding result,[13],no binding (tested: 2 ug/ml)
same,binding result,bovine serum albumin,no binding (tested: 2 µg/ml to 5 µg/ml)
B7,Kd,[6],1.41 nM
same,koff,[6],0.000101 s⁻¹
same,kon,[6],71800 M⁻¹ s⁻¹
same,binding result,[8],no binding (tested: 0.1 µg/ml to 1 µg/ml)
same,"Mean EC50, neutralization of TcdB on HT-29 cells (xCELLigence)",[9],142 µg/mL
same,binding result,[10],binds
same,binding result,[14],no binding (tested: 2 ug/ml)
same,binding result,bovine serum albumin,no binding (tested: 2 µg/ml to 5 µg/ml)
B8,Kd,[6],1.27 nM
same,koff,[6],0.000145 s⁻¹
same,kon,[6],114000 M⁻¹ s⁻¹
same,binding result,[8],no binding (tested: 0.1 µg/ml to 1 µg/ml)
same,"Mean EC50, neutralization of TcdB on HT-29 cells (xCELLigence)",[9],142 µg/mL
same,binding result,[10],binds
same,binding result,[14],no binding (tested: 2 ug/ml)
same,binding result,bovine serum albumin,no binding (tested: 2 µg/ml to 5 µg/ml)
B9,koff,[15],0.00357 s⁻¹
same,kon,[15],678000 M⁻¹ s⁻¹
same,koff,[16],0.00598 s⁻¹
same,kon,[16],73700 M⁻¹ s⁻¹
same,Kd,[6],8.57 nM
same,koff,[6],0.00693 s⁻¹
same,kon,[6],808000 M⁻¹ s⁻¹
same,binding result,[8],no binding (tested: 0.1 µg/ml to 1 µg/ml)
same,binding result,[17],no binding (tested: 2 ug/ml)
same,binding result,bovine serum albumin,no binding (tested: 2 µg/ml to 5 µg/ml)
B10,binding result,[18],no binding (tested: 5 ug/mL)
same,Kd,[1],0.423 nM
same,koff,[3],0.000234 s⁻¹
same,kon,[3],552000 M⁻¹ s⁻¹
same,koff,[5],< 1e-07 s⁻¹
B11,koff,[19],0.000754 s⁻¹
same,kon,[19],2.12e+06 M⁻¹ s⁻¹
same,koff,[20],0.000928 s⁻¹
same,kon,[20],590000 M⁻¹ s⁻¹
B12,Kd,[1],0.399 nM
same,koff,[3],0.000235 s⁻¹
same,kon,[3],590000 M⁻¹ s⁻¹
